Experimental data from paper PMC12416549 (2024).
Substitutions are numbered along the chain they refer to. In names and notes the source's numbering stands.

T1: TNFR1 (Homo sapiens, UniProt P19438)
T1 chain: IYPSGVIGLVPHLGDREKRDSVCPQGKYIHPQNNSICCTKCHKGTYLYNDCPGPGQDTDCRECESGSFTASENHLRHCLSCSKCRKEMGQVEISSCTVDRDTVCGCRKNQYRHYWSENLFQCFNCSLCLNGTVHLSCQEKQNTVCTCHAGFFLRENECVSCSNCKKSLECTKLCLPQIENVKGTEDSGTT

B1: E89D (designed binder)
chain: SMEEEVEKAAKEYEKKKKEAIEKHLEKLKAKDKEAAERFLKELEEAAKEYAKDEAKTMSEEEAKRRAKKYKEKVLLSELSEEEQKEIKDAEEKLVRTILKYVEEAAK
B2: K29C (designed binder)
chain: B1 chain with K29C, D89E
B3: K71G (designed binder)
chain: B1 chain with K71G, D89E
B4: E14V (designed binder)
chain: B1 chain with E14V, D89E
B5: E89W (designed binder)
chain: B1 chain with D89W
B6: E82A (designed binder)
chain: B1 chain with E82A, D89E
B7: I21F (designed binder)
chain: B1 chain with I21F, D89E
B8: Y50N (designed binder)
chain: B1 chain with Y50N, D89E
B9: F39Q (designed binder)
chain: B1 chain with F39Q, D89E
B10: A63L (designed binder)
chain: B1 chain with A63L, D89E
B11: K11M (designed binder)
chain: B1 chain with K11M, D89E
B12: L79N (designed binder)
chain: B1 chain with L79N, D89E
B13: E12T (designed binder)
chain: B1 chain with E12T, D89E
B14: F39I (designed binder)
chain: B1 chain with F39I, D89E
B15: E83C (designed binder)
chain: B1 chain with E83C, D89E
B16: K15R (designed binder)
chain: B1 chain with K15R, D89E
B17: E81P (designed binder)
chain: B1 chain with E81P, D89E
B18: K23A (designed binder)
chain: B1 chain with K23A, D89E
B19: S80H (designed binder)
chain: B1 chain with S80H, D89E
B20: D32F (designed binder)
chain: B1 chain with D32F, D89E
B21: S59K (designed binder)
chain: B1 chain with S59K, D89E
B22: S1D (designed binder)
chain: B1 chain with S1D, D89E
B23: K41S (designed binder)
chain: B1 chain with K41S, D89E
B24: A90L (designed binder)
chain: B1 chain with D89E, A90L
B25: Y101R (designed binder)
chain: B1 chain with D89E, Y101R
B26: E44D (designed binder)
chain: B1 chain with E44D, D89E
B27: A51G (designed binder)
chain: B1 chain with A51G, D89E
B28: K71S (designed binder)
chain: B1 chain with K71S, D89E
B29: V102W (designed binder)
chain: B1 chain with D89E, V102W
B30: E86T (designed binder)
chain: B1 chain with E86T, D89E
B31: D53L (designed binder)
chain: B1 chain with D53L, D89E
B32: F39S (designed binder)
chain: B1 chain with F39S, D89E
B33: A67K (designed binder)
chain: B1 chain with A67K, D89E
B34: E83Y (designed binder)
chain: B1 chain with E83Y, D89E
B35: A90V (designed binder)
chain: B1 chain with D89E, A90V
B36: A20V (designed binder)
chain: B1 chain with A20V, D89E
B37: I87Q (designed binder)
chain: B1 chain with I87Q, D89E
B38: E62L (designed binder)
chain: B1 chain with E62L, D89E
B39: L43I (designed binder)
chain: B1 chain with L43I, D89E
B40: A46S (designed binder)
chain: B1 chain with A46S, D89E
B41: E7Q (designed binder)
chain: B1 chain with E7Q, D89E
B42: V102P (designed binder)
chain: B1 chain with D89E, V102P
B43: K100L (designed binder)
chain: B1 chain with D89E, K100L
B44: A105R (designed binder)
chain: B1 chain with D89E, A105R
B45: K33E (designed binder)
chain: B1 chain with K33E, D89E
B46: K17A (designed binder)
chain: B1 chain with K17A, D89E
B47: E3Q (designed binder)
chain: B1 chain with E3Q, D89E
B48: L43W (designed binder)
chain: B1 chain with L43W, D89E
B49: E12Q (designed binder)
chain: B1 chain with E12Q, D89E
B50: S1M (designed binder)
chain: B1 chain with S1M, D89E
B51: L75M (designed binder)
chain: B1 chain with L75M, D89E
B52: K17I (designed binder)
chain: B1 chain with K17I, D89E
B53: E22G (designed binder)
chain: B1 chain with E22G, D89E
B54: K11I (designed binder)
chain: B1 chain with K11I, D89E
B55: E86V (designed binder)
chain: B1 chain with E86V, D89E
B56: I87N (designed binder)
chain: B1 chain with I87N, D89E
B57: K11T (designed binder)
chain: B1 chain with K11T, D89E
B58: A36W (designed binder)
chain: B1 chain with A36W, D89E
B59: A67G (designed binder)
chain: B1 chain with A67G, D89E

Biological target: T1, TNFR1
Assay: yeast display SC50

apparent Kd (screen)	Binder
0.653 nM	B1
1.4 nM	B2
5.31 nM	B3
11.4 nM	B4
1.69 nM	B5
0.593 nM	B6
0.49 nM	B7
1.54 nM	B8
5.84 nM	B9
9.41 nM	B10
0.446 nM	B11
12.5 nM	B12
1.05 nM	B13
3.99 nM	B14
0.446 nM	B15
0.593 nM	B16
0.49 nM	B17
0.446 nM	B18
0.956 nM	B19
6.43 nM	B20

apparent Kd (screen)	Binder
1.05 nM	B21
0.446 nM	B22
0.869 nM	B23
0.446 nM	B24
0.446 nM	B25
0.869 nM	B26
2.05 nM	B27
0.869 nM	B28
1.4 nM	B29
0.956 nM	B30
13.8 nM	B31
7.07 nM	B32
1.54 nM	B33
2.05 nM	B34
1.27 nM	B35
2.73 nM	B36
3 nM	B37
0.653 nM	B38
1.4 nM	B39
0.49 nM	B40

apparent Kd (screen)	Binder
4.39 nM	B41
0.49 nM	B42
1.69 nM	B43
2.73 nM	B44
0.539 nM	B45
1.86 nM	B46
2.25 nM	B47
2.73 nM	B48
0.956 nM	B49
2.25 nM	B50
0.49 nM	B51
0.956 nM	B52
1.05 nM	B53
0.539 nM	B54
1.05 nM	B55
12.5 nM	B56
0.446 nM	B57
0.446 nM	B58
0.49 nM	B59
